Measurements reported in the supplement of paper PMC10567573.

B1: TPD52L2 (parent)
chain: EAEEEELRAELTKVEEEIVTLRQV

Variants of: B1
Assay: protein stability index of a GFP-peptide fusion (GPS, HEK-293T) (PSI 1-6); higher = more stable
Details: c terminus: a fixed tail appended
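Further: lentivirally expressed fusions sorted by FACS into six bins by GFP to DsRed ratio, PSI derived from sequencing read proportions per bin multiplied by bin number.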

Going from EAEEEELRAELTKVIEEIVTLRQV [E15I] to EAEEEELRAELTKVKEEIVTLRQV [E15K], the protein stability index rises from 1.81 to 5.01.

First: EAEEEELRAELTKVLEEIVTLRQV [E15L]
Second: EAEEEELRAELTKVMEEIVTLRQV [E15M]
The protein stability index of the first is lower: 1.83 for the first, 2.91 for the second.

First: EAEEEELRAELTKVNEEIVTLRQV [E15N]
Second: EAEEEELRAELTKVPEEIVTLRQV [E15P]
The protein stability index of the first is higher: 5.27 for the first, 5.04 for the second.

Compared with EAEEEELRAELTKVQEEIVTLRQV [E15Q], EAEEEELRAELTKVREEIVTLRQV [E15R] is lower in protein stability index: 4.9 for the first, 4.72 for the second.

Compared with EAEEEELRAELTKVSEEIVTLRQV [E15S], EAEEEELRAELTKVTEEIVTLRQV [E15T] is higher in protein stability index: 4.39 for the first, 4.63 for the second.

Going from EAEEEELRAELTKVVEEIVTLRQV [E15V] to EAEEEELRAELTKVWEEIVTLRQV [E15W], the protein stability index rises from 2.8 to 3.03.

Compared with EAEEEELRAELTKVYEEIVTLRQV [E15Y], EAEEEELRAELTKVEAEIVTLRQV [E16A] is higher in protein stability index: 3.24 for the first, 3.85 for the second.

First: EAEEEELRAELTKVECEIVTLRQV [E16C]
Second: EAEEEELRAELTKVEDEIVTLRQV [E16D]
The protein stability index of the first is lower: 3.82 for the first, 4.17 for the second.

Going from EAEEEELRAELTKVEFEIVTLRQV [E16F] to EAEEEELRAELTKVEGEIVTLRQV [E16G], the protein stability index rises from 2.76 to 4.84.

Going from EAEEEELRAELTKVEHEIVTLRQV [E16H] to EAEEEELRAELTKVEIEIVTLRQV [E16I], the protein stability index falls from 3.87 to 2.61.

Going from EAEEEELRAELTKVEKEIVTLRQV [E16K] to EAEEEELRAELTKVELEIVTLRQV [E16L], the protein stability index falls from 3.25 to 3.06.

Compared with EAEEEELRAELTKVEMEIVTLRQV [E16M], EAEEEELRAELTKVENEIVTLRQV [E16N] is higher in protein stability index: 2.59 for the first, 3.93 for the second.

Going from EAEEEELRAELTKVEPEIVTLRQV [E16P] to EAEEEELRAELTKVEQEIVTLRQV [E16Q], the protein stability index falls from 4.79 to 3.52.

Compared with EAEEEELRAELTKVEREIVTLRQV [E16R], EAEEEELRAELTKVESEIVTLRQV [E16S] is higher in protein stability index: 2.79 for the first, 3.46 for the second.

Going from EAEEEELRAELTKVETEIVTLRQV [E16T] to EAEEEELRAELTKVEVEIVTLRQV [E16V], the protein stability index falls from 4.33 to 3.27.

Compared with EAEEEELRAELTKVEWEIVTLRQV [E16W], EAEEEELRAELTKVEYEIVTLRQV [E16Y] is lower in protein stability index: 2.66 for the first, 1.82 for the second.

Compared with EAEEEELRAELTKVEEAIVTLRQV [E17A], EAEEEELRAELTKVEECIVTLRQV [E17C] is higher in protein stability index: 4.14 for the first, 4.63 for the second.

Going from EAEEEELRAELTKVEEDIVTLRQV [E17D] to EAEEEELRAELTKVEEFIVTLRQV [E17F], the protein stability index falls from 5.55 to 2.87.

Going from EAEEEELRAELTKVEEGIVTLRQV [E17G] to EAEEEELRAELTKVEEHIVTLRQV [E17H], the protein stability index falls from 5.32 to 3.44.

Compared with EAEEEELRAELTKVEEIIVTLRQV [E17I], EAEEEELRAELTKVEEKIVTLRQV [E17K] is higher in protein stability index: 3.46 for the first, 4.67 for the second.

Going from EAEEEELRAELTKVEELIVTLRQV [E17L] to EAEEEELRAELTKVEEMIVTLRQV [E17M], the protein stability index falls from 4.24 to 4.02.

Compared with EAEEEELRAELTKVEENIVTLRQV [E17N], EAEEEELRAELTKVEEPIVTLRQV [E17P] is higher in protein stability index: 4.54 for the first, 4.66 for the second.

First: EAEEEELRAELTKVEEQIVTLRQV [E17Q]
Second: EAEEEELRAELTKVEERIVTLRQV [E17R]
The protein stability index of the first is lower: 3.86 for the first, 4.62 for the second.

Going from EAEEEELRAELTKVEESIVTLRQV [E17S] to EAEEEELRAELTKVEETIVTLRQV [E17T], the protein stability index rises from 4.29 to 4.63.

Compared with EAEEEELRAELTKVEEVIVTLRQV [E17V], EAEEEELRAELTKVEEWIVTLRQV [E17W] is lower in protein stability index: 4.05 for the first, 2.28 for the second.

Compared with EAEEEELRAELTKVEEYIVTLRQV [E17Y], EAEEEELRAELTKVEEEAVTLRQV [I18A] is higher in protein stability index: 2.35 for the first, 5.93 for the second.

Compared with EAEEEELRAELTKVEEECVTLRQV [I18C], EAEEEELRAELTKVEEEDVTLRQV [I18D] is higher in protein stability index: 4.55 for the first, 5.66 for the second.

Compared with EAEEEELRAELTKVEEEEVTLRQV [I18E], EAEEEELRAELTKVEEEFVTLRQV [I18F] is lower in protein stability index: 5.86 for the first, 4.52 for the second.

First: EAEEEELRAELTKVEEEGVTLRQV [I18G]
Second: EAEEEELRAELTKVEEEHVTLRQV [I18H]
The protein stability index of the first is higher: 5.67 for the first, 5.24 for the second.

Compared with EAEEEELRAELTKVEEEKVTLRQV [I18K], EAEEEELRAELTKVEEELVTLRQV [I18L] is lower in protein stability index: 5.19 for the first, 3.92 for the second.

First: EAEEEELRAELTKVEEEMVTLRQV [I18M]
Second: EAEEEELRAELTKVEEENVTLRQV [I18N]
The protein stability index of the first is higher: 5.11 for the first, 4.93 for the second.

Compared with EAEEEELRAELTKVEEEPVTLRQV [I18P], EAEEEELRAELTKVEEEQVTLRQV [I18Q] is lower in protein stability index: 5.69 for the first, 5.41 for the second.

Compared with EAEEEELRAELTKVEEERVTLRQV [I18R], EAEEEELRAELTKVEEESVTLRQV [I18S] is lower in protein stability index: 5.71 for the first, 5.45 for the second.

Going from EAEEEELRAELTKVEEETVTLRQV [I18T] to EAEEEELRAELTKVEEEVVTLRQV [I18V], the protein stability index rises from 5.19 to 5.35.

Going from EAEEEELRAELTKVEEEWVTLRQV [I18W] to EAEEEELRAELTKVEEEYVTLRQV [I18Y], the protein stability index rises from 5.09 to 5.12.

Compared with EAEEEELRAELTKVEEEIATLRQV [V19A], EAEEEELRAELTKVEEEICTLRQV [V19C] is lower in protein stability index: 3.96 for the first, 3.78 for the second.

Compared with EAEEEELRAELTKVEEEIDTLRQV [V19D], EAEEEELRAELTKVEEEIETLRQV [V19E] is lower in protein stability index: 4.82 for the first, 4.21 for the second.

Going from EAEEEELRAELTKVEEEIFTLRQV [V19F] to EAEEEELRAELTKVEEEIGTLRQV [V19G], the protein stability index rises from 3.27 to 4.79.

Going from EAEEEELRAELTKVEEEIHTLRQV [V19H] to EAEEEELRAELTKVEEEIITLRQV [V19I], the protein stability index falls from 3.9 to 2.96.

First: EAEEEELRAELTKVEEEIKTLRQV [V19K]
Second: EAEEEELRAELTKVEEEILTLRQV [V19L]
The protein stability index of the first is higher: 3.89 for the first, 3.69 for the second.

Going from EAEEEELRAELTKVEEEIMTLRQV [V19M] to EAEEEELRAELTKVEEEINTLRQV [V19N], the protein stability index rises from 3.52 to 4.51.

Going from EAEEEELRAELTKVEEEIPTLRQV [V19P] to EAEEEELRAELTKVEEEIQTLRQV [V19Q], the protein stability index falls from 5.45 to 3.04.

Going from EAEEEELRAELTKVEEEIRTLRQV [V19R] to EAEEEELRAELTKVEEEISTLRQV [V19S], the protein stability index rises from 3.88 to 3.98.

First: EAEEEELRAELTKVEEEITTLRQV [V19T]
Second: EAEEEELRAELTKVEEEIWTLRQV [V19W]
The protein stability index of the first is higher: 4.44 for the first, 2.54 for the second.

Going from EAEEEELRAELTKVEEEIYTLRQV [V19Y] to EAEEEELRAELTKVEEEIVALRQV [T20A], the protein stability index rises from 3.71 to 3.9.

First: EAEEEELRAELTKVEEEIVCLRQV [T20C]
Second: EAEEEELRAELTKVEEEIVDLRQV [T20D]
The protein stability index of the first is lower: 3.46 for the first, 5.3 for the second.

Going from EAEEEELRAELTKVEEEIVELRQV [T20E] to EAEEEELRAELTKVEEEIVFLRQV [T20F], the protein stability index falls from 3.84 to 2.85.
